In patent publication US8536230B2, “Methods for regulating gelation of polysaccharide solutions and uses thereof” (University of Virginia Patent Foundation, priority 2006, dated 2013):

Assay: In vitro release of FITC-dextran / FITC-albumin from chitosan-AHP gels in PBS
Format: physicochemical
Settings: FITC albumin loaded (1, 2, and 3%) gels, PBS 37° C.
Protocol: FITC dextran loaded samples (0.5×1 cm) were placed in histology cups and incubated in 50 mL PBS at 37° C. in a shaking water bath. At predetermined time points, 5 mL of the release media was removed and replenished with 5 mL of PBS. The FITC dextran concentration was determined spectrophotometrically and the percentage cumulative release was calculated. The three groups include 1% dextran, 0.5% dextran, and 0.5% dextran diluted. (see FIG. 8A).
For FITC-dextran loading, appropriate amounts (0.5, 1, and 5% w/v) of FITC-dextrans were dissolved in chitosan-AHP solutions. The respective dextran loaded solutions were poured into petri dishes and allowed to set at 37° C. for 12 h. Circular discs (8 mm diameter) were bored from the thermo-gelled films for in vitro release studies. […] The FITC-dextran concentration in the release media were determined spectrophotometrically at 491 nm and the percentage cumulative release was calculated based on the total FITC-D content. Statistical significance (p<0.05) was determined using one way ANOVA.
Also tested was the release profile of FITC-labeled bovine serum albumin from chitosan-AHP gels represented as the percentage cumulative release. […] The FITC albumin concentration was determined spectrophotometrically and the percentage cumulative release was calculated. […]

Substance: FITC-albumin: FITC-labeled bovine serum albumin loaded in chitosan-AHP gels
- percentage cumulative release profile: significantly lower compared to FITC-Dextran
